Results from doi:10.1101/2023.02.11.528150 (bioRxiv, 2023).
Several values for one entry are separate records, joined by “and”; a condition that tells them apart may be missing. Identical values can stand only once. Like-named read-outs stand apart in the source and are kept apart here.

B1: recombinant form of human platelet factor 4 (PF4), tetramer (natural protein)
chain: EAEEDGDLQCLCVKTTSQVRPRHITSLEVIKAGPHCPTAQLIATLKNGRKICLDLQAPLYKKIIKKLLES
B2: KKO monoclonal anti-PF4/heparin antibody (antibody, V domains shown)
VH: VQLQQSGAELVKPGASVKLSCKASGYTFTNYFIYWVKQRPGQGLEWIGEINPRNGDTDFNEKFESRATLTVDKSSSTAYMQLSSLTSEDSAIYYCTRSPYGNNYGFTYWGQGTLVTVSA
VL: DIQMIQSQKFMSTSVGDRVTVTCKASQNVGTNVAWYQQKPGQSPNALIYSASYRYSGVPDRFTGSGSGTDFTLTITNVQSEDLADYFCQQYNSYPLTFGTGTKLDLK

What was measured:
Assay in all cases: native MS
native MS = target: the molecule itself
[1] = target: T1, recombinant form of human platelet factor 4 (PF4), tetramer (human, UniProt P02776)
[2] = target: T1, recombinant form of human platelet …; remark: listed apart in the source

Binder	stoichiometry N (native MS)	stoichiometry N [1]	stoichiometry N [2]
B1	4 chains per oligomer		
B2		1 KKO per complex of two PF4 tetramers on one heparin chain and 2 KKO per complex of three PF4 tetramers on one heparin chain	1 PF4 tetramer (with dp20) per KKO and 2 PF4 tetramers (with dp20) per KKO
